Measured values: the DeepSol protein solubility set

Test: soluble on expression in E. coli; label from the status in PepcDB or PDB records

| Sequence | soluble on expression in E. coli |
| --- | --- |
| MGSDKIHHHHHHATTLLVSCSNQQTQTKAITVSDTTLLSAEEFSQKIKKEPNALILDVRTPEEFSEAHIANATNVNWKDNFASGITEVNKNQPVLVYCLSGGRSASASDYLRKNGYTQVYELQGGLLKWQASNFEVVADTVTAAQDSGMTLQQFEALLVTDKYVLIDFYATWCGPCKMMEPALEDIAATMSDKVIVVRIDVDKNEELSKHFEVESLPTVQIYKNKKLVWEDIGYKTKKQLVSQLK | not soluble |
| MPIADTVTLNSGYEMPVIGYGTWQLPKNLAAERVRDALEAGYRHIDSALSFKNQEEVAAGIKDWCKIRKVRREELFLSSKIWNTYHSRNRCMQQIDEMLEIFETTYMDLIVIHWPFGWAEDEPPGERGLWPRGANGKMRYSDVDYLETWKALEDAHRSGKIRSIGLANFNIGQVEQVWTKGLIKPAVLQVEMNPFLDQEEIRQFCREKGIILTAFMLTGNPGSALYRKHEDPNLLYNETLQSIAKGHGKSVVQVLVRWAIDLRTTALVKSSESKRIRQNINIFKFRLTSQEIARIKALNIDFRILNPLLGNYDHPYFPWPHVQEEQLPQKVEEPDPENL | not soluble |
| MGSDKIHHHHHHMDGKVMAGTRIEKVMANIRQRITSRSLVPGARLPSVRALAKTMQLSTSTIVEAYDRLVADGTISSRPGSGFFVAGPLAPLSLADIEPRLDRAVDPLWVSRQALDDGSALAKPGCGWLPASWMPQEALRRAMRGLARADDALLTDYGSPMGLLPLRQLLSRRLAEHGVQAGASQIMLTDSGTQAIDLLCRFLLQPGDTVVVDDPCYFNFHALLRAHRVKIVGVPYTPAGPDLPLFEQALKEHQPRLYITNSAIHNPTGARLSAVSAHRLLMLAEQPGLTIIEDDIFADFETQAAPRLAAFDGLNRVVQIGSFSKTLSASVRCGFIAAPRAWVEALTDLKIATAFGGTHFSAALVLSLLTDGSYRKHVEALRQRLAAAVPEAATRLRSIGCMPWIEPQAGMFLWCRLPEGTDAADVAQRALARQVVLAPGNVFSSSQNASGFMRFNVSQMVGPQVMTVLADALR | not soluble |
| MIVSMKKLAQLLLPLLLPFSAEAGGQPDFCKSINHAGGRYTVCSFDPAKNTIRIYDQDHVSGQGYRNFADLSSALWRQHMFSVFAMNGGMYHSDYSPVGLFVENGVERSPVSTRGGWGNFHLLPNGVFYLDGNTAGVLETEAYLAADPKPDFATQSGPMLVIDGKLHPRFLPDSDSLKRRNGVGVSRDGMVHFAISETTVRFYDFGTLFRDVLDAPNALYLDGTISSVDIPAMNRRDQLFSMGPIIAVVDRVPDLEHHHHHH | not soluble |
| MGSDKIHHHHHHMAGDIIVRNKFCDISKVRFRKWDEIDVIFWKFGKSNPERKSGGYYLNAYKDAYIQYNKERIIKYANQAGILPELLGGVAWIESGGMPEEYKFQVFEIKRFLKLKSSPENKTSFGSVAMQIQVAARTLGLNPDILTTRDQLELATCLMEDDFNLWIVAQHLRDMILYDYPSVAALYLTDEQYMMAGIRYNRGIQRKLSEFIRFIDAKPERGSAEFDYISYGVRLLQIRNHIRKLLELNT | not soluble |
| MGSDKIHHHHHHMTDVHASTQALKPARLLADSPSRFPGESAEYRRARNDLLVEEIELRRHIERVAAQRRALPAGGVVPEDYRFMGEAGPVALSEMFGAHDTLVTYNWMFGPQRVRPCPMCTSLLSAYDGEMPDILQRVAFAVIARAPIERLVAFGKERGWRHLRLYSSGGNSFNRDYAAEDPAGDDHPAFNVFTRSGGTVRHFWAEEMGPSTADPGQDPRGAPDVMPIWTVLDMTPGGRGTDWYPKLEYDTAPG | not soluble |
| MPLHQVVEPAFYIVVVLDLVSGRLNGHDKDTLGLAQQLANRNSGGGAVVAIAFGELKDDSLNKAGVDRLIHINDEQYDQYNPEQRCNDLQGIIGELDPQHILLPDSINGGGDLGRRLAAALQQRPACGVWKLNDDTVVCR | not soluble |
| MSLAHKAKLKIIPLGGLNEIGKNMTVFEYGNDIIVVDCGLAFPDDEMLGIDLVIPDITYLLKNREKVKAIVLTHGHEDHIGALPYVLKQLNVPIYGTRLTIGLVEYKLKEHGLLRDSKLITVKPRETVEIGQFKVEFIRTSHSIADSAALAIHTPVGTVFHSGDFKIDFTPIDGEVPDLHRFAQLGEKGVLVMLCDSTNIERPGYTMSERTVGETFDNLFRKAEQRIIVATFASNIHRVQQIINSAQKYGRKVAISGRSMVNVVNVAMELGYLTVPEGLLIDLDEANKLPHNKVVIITTGSQGEPMSALTRMASSEHKKVEIVPGDTVIISASPIPGNERLISRVINQLFKKGANVIYEALADIHVSGHACQEEIKLLHTLIKPKFFIPVHGEYRHLVQHAKLAESLGMPPENIFVVDNGTVLEFTKEGHHHHHH | soluble |
| MHRRGVGAGAIAKKKLAEAKYKERGTVLAEDQLAQMSKQLDMFKTNLEEFASKHKQEIRKNPEFRVQFQDMCATIGVDPLASGKGFWSEMLGVGDFYYELGVQIIEVCLALKHRNGGLITLEELHQQVLKGRGKFAQDVSQDDLIRAIKKLKALGTGFGIIPVGGTYLIQSVPAELNMDHTVVLQLAEKNGYVTVSEIKASLKWETERARQVLEHLLKEGLAWLDLQAPGEAHYWLPALFTDLYSQEITAEEAREALP | soluble |
| MGSDKIHHHHHHMFLSPYFLKQNQSISVSAQQASDFAKKIAQDFNPIHDVGAKRFCVPGDLLFALVLTQYGLSQSMKFTFAGMVGDGVELQFPEQVNDSFSICDNRDKTYLNVSRLGDISRCDAQTESFIRHYVAFSGHNFIDILMPLMKQHQVMINPDRPLVIYESMSFDLTTLDFVEVQLSLVQQELKIDGKRGDVTLHFELHSGDTLVGTGIKTLVMSGLRAYEEDQVQQMCAAYEGRKTDF | not soluble |
| MGSDKIHHHHHHMIILGIHDGHDAGAVLLNDEEIYAVNEERLNRVKKYRGFPELSIRKVLEMSGTEPDDVDVIAIAGLFRRQKRLLELEHKLKSIFGPKFKEKAIFVEHHLAHASSAYYSSGLRDAVVLTIDAAGDGLSSTVSIAKDGQMFRIAQSTYIDSLGDFYASVTELLGFKPMRHEGKVMSLAAYGNPRYELSAIIELNGLTFENKLKVIGTEATKKLAEFFEFPLEKAKEVSSNLKRGIMDNELEKKAIEIAASAQAHLERLIEEMGLELKKYELPIAYAGGVAQNVKANAILRRIFGDIWIFPAMDDAGLAFGAAIYVKAQMELLFGKWKPFKLKHVFLGPSYSPEEIEEILKREGLEYEEVDVPSFVADSLVEGKLVGLFQGRLEYGPRALGNRSILADPRNEKVREKLNLALRRDVFQPFAPSILEERFPDYIEDLTGEPNRFMTMSYLASEEFMEVAPAVVHIDGTTRPQSVPKDLGTYYKIIRRFEKRTGVGAVLNTSFNMHGEPIVCSPLDAIRTAKSAKLDVLLLERFGVYIV | not soluble |
| MGSDKIHHHHHHMKILFLSHLDMNLYLFRRPIMEALRKEGHEVIAMCPKGEYFDRFKELGIKAISYEISRESLNPFKELKTLLSIAQKLSELKPDILHTFMLKPNIYGTLASKIASIPYVICSVTGLGSFYIEESFKSRAIRYLIETLSRIVFKIAKKVVFQNEDDRQLFIQKGLVESSKTHLIKGSGINTKLFDPALISPSTLVRYRQELGLEKKHVVLMVARAIAHKGVREYYEAARLLGAFTSDSHLAFLFVGDTDEGNPSCVSSKELYSPHVLWLGHREDILELMALCDIFVLPSYREGIPRTLLEASSLAKPMVTSLAVGCKEVVKEGENGFLVPVGDTKALAQKIHYLVQNPALRLSMGEKARQIAQKEFDVSIIVKAHLELYKEVRGDLQKTL | not soluble |
| MSLDSWNVLIADDEIIIREGIRDAINWSELQLTVVAEAEDGEEALELALEHQVDILLADLNMPIMNGLTLIKQLRTALPHCKVIIITGHDEFVYAQEAIRLSVVDYIIKPVDADQLYEVLKKVCIELTEGQNRKREETFTAKQLEKNITLLREQFCSNWVMGALTNEEVAEQLSFLQLPDTLPSFIGVIRCLNRLHLVGEGHHHHHH | soluble |
| VIHVTKEVKEVATLSCGHNVSVEELAQTRIYWQKEKKMVLTMMSGDMNIWPEYKNRTIFDITNNLSIVILALRPSDEGTYECVVLKYEKDAFKREHLAEVTLSVKADFPTPSISDFEIPTSNIRRIICSTSGGFPEPHLSWLENGEELNAINTTVSQDPETELYAVSSKLDFNMTTNHSFMCLIKYGHLRVNQTFNWNTAK | soluble |
| MGSDKIHHHHHHMSLNQPPHTRLRHDNPRSPNTFPSRAKVVGAEDLATTSNASTGHGFNLARPVHRNREPATPAPRVVEGANRRRSACEQDISHRHEKIYNWAPAPNTRQGQPTRRLTSRSGPKEREHAARTPRTALQCQRVLALGRVRTCASCGRGSEVLLRGLCPECFDRRYGVVEGLPWELVVDVCTSCGRVRIGHKWLEYATAEEAVGLMLSSMSLKPVHPVERVELEDWALETRLDWRTRVRLRFRANYRDTLFRVSRVIVLRLNPSTCPLCIVRRSGEYDTLVQVRGYRAGEAVEKTLNSLDPREAPIDVVPVRGGVDVYFHHRGAAARFVSRLASTARVRVSRVEHEHVGTSSLGRRRSRKTILVRLEGLTGERGE | not soluble |
| MFKRLSRFLLPLVWIFTATTALADDTQINTMDPYSMVKSVANKTFDRFHKDKALIDADADHLKVIVREELMPYIDYKYASYKVLGQYLKESTEDQRNRFVDAFQGYLVTTYAQAFTEYTNQKVEFSPGSDFSNEKIVDVNVQIIEAGRPPIKLLFKARRLKDDSWKAFDLVAEGVSLLSSKQSEISNLIRQQGIEPVIKMLEERTKDKVTKQPKAGKLEHHHHHH | soluble |
| MKQHCQKQSTARSTKLQYLAENQNDQPRLLAGSLSHGDSTTGPIKYKDGHQKRTTVVWDGQGTIRDETKSNIIKLTYLYLFPSCGAGSVRELVPFSSYHSFIVTHSTFNITMIALQSKCILPPCLPL | not soluble |
| MNQLNWKDVTPSFEQYEDILKSASSLPKKKFVELQPRLLATVERFKKIKGLTRVLVINCADNTVYRKFICDVVTDGLEPTIMTESLDAKLLFDRYSVDLKGDVVVEAGLLSKAN | not soluble |
| MSLKMQEPIEDPLSKLTQYSGKTFVIKYGGSIMKNKKAEEAFIKDVKYLRKLGINIVIVHGGGPEISRWLELSGIESRFVDGLRVTDEKVIEIVQMVLSGKINKKLSLQFNIDGVNAVGLSGVDNKLIEATKKYVYKGNETIDIGYVGKVTKVNSEFIKELLKGGQVPVIAPIGCDNKGNVYNINADYAAAFISSALDAEKLIILTDVEGVYRNINDPQSIIHEIDIKDVNYYIKEEIIKGGMIPKVQCCASAIENGTKNVQLIDGRNDHCLINDILNYRGTIISYRSGVKCQKAIEGHHHHHH | soluble |
| GPGSMEDRNSVASSVFFTGVSLVIEKEKLRQHFESVGHVVSFTIFGPAPGKDFRYGIVGYMDEKTAEEAIRRLDGTTFGERAMRVTAARSTTLHGPLRAGPGGGGSGPADHSTFRKRPREPYPSLNSSRPPYGPGMGRGGGMRAPIARVSFSAQQQQKQEQSQQPTTDKAGRETMQFPRFYTDPILGRDGSLVLDALRGMATEEAYSAVEQLRVLALERPNEAKRLLHNNPALKSAVIMTLQHAGRIPLGSLPRDAYQSRRAAEAEAELAQPLPPQQPTPSQQSALPTPQQTPPQPPAESLKPAKKEARSAAKSGEARGARKRDTATGSASASAAVPSESQTSLVRPSTPMTEAERDEVLELIQSMSEEDVERVLTMSARDFAQVPDPAQRKQLEVLQKRLLVMSRDL | soluble |
